This test concerns the target T1, S0_2.126 (synthetic construct (de novo design)).
T1 chain: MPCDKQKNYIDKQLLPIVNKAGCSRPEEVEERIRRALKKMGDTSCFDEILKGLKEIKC
In words: SPR.

B1: D25 IgG (antibody, V domains shown)
VH: QVQLVQSGAEVKKPGSSVMVSCQASGGPLRNYIINWLRQAPGQGPEWMGGIIPVLGTVHYAPKFQGRVTITADESTDTAYIHLISLRSEDTAMYYCATETALVVSTTYLPHYFDNWGQGTLVTVSS
VL: DIQMTQSPSSLSAAVGDRVTITCQASQDIVNYLNWYQQKPGKAPKLLIYVASNLETGVPSRFSGSGSGTDFSLTISSLQPEDVATYYCQQYDNLPLTFGGGTKVEIK
One may read the Kd as the constant that tells how readily two partners part at equilibrium. The low end stands for tighter binding, the high end for weaker binding. Molecule B1 returned a Kd of about 0.05 nM.

Values taken from doi:10.1101/685867 (bioRxiv, 2020).
